{"source": "paper PMC4794721", "about": "“Improved Production of Active Streptomyces griseus Trypsin with a Novel Auto-Catalyzed Strategy” (Scientific Reports, 2016)", "proteins": {"B1": {"name": "SGT (Streptomyces griseus trypsin) (Streptomyces griseus) (protein)", "chain": "VVGGTRAAQGEFPFMVRLSMGCGGALYAQDIVLTAAHCVSGSGNNTSITATGGVVDLQSSSAVKVRSTKVLQAPGYNGTGKDWALIKLAQPINQPTLKIATTTAYNQGTFTVAGWGANREGGSQQRYLLKANVPFVSDAACRSAYGNELVANEEICAGYPDTGGVDTCQGDSGGPMFRKDNADEWIQVGIVSWGYGCARPGYPGVYTEVSTFASAIASAARTL"}}, "substrate": "N=C(N)NCCCC(NC(=O)c1ccccc1)C(=O)Nc1ccc([N+](=O)[O-])cc1", "assay": "purified protein", "details": "50 mM Tris-HCl, pH 8.0, 37 °C (amidase assay)", "data": [{"protein": "B1", "values": [{"measurement": "Km", "result": "7.88 ± 0.16 × 10^−2 mM"}]}]}
